Data taken from paper PMC9482650, “Quantitative fragmentomics allow affinity mapping of interactomes” (Nature Communications, 2022).

T1: LIN7B, Q9HAP6
T1 sequence (Q9HAP6 88-185, limits assumed, looked up): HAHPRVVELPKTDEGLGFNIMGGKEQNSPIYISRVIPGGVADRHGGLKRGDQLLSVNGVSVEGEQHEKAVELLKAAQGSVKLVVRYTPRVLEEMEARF

T2: MPDZ_10, O75970
T2 sequence (O75970 1624-1722, limits assumed, looked up): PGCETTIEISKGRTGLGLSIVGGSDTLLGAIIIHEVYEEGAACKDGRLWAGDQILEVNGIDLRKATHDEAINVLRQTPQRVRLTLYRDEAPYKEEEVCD

T3: DLG3_3, Q92796
T3 sequence (Q92796 374-475, limits assumed, looked up): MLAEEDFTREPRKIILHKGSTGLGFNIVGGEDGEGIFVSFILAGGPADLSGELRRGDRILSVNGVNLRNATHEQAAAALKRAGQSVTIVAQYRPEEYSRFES

T4: SNTA1, Q13424
T4 sequence (Q13424 82-180, limits assumed, looked up): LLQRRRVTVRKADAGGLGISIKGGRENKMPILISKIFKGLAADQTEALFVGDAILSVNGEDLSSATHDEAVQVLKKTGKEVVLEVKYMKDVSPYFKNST

T5: DFNB31_2, Q9P202
T5 sequence (Q9P202 274-371, limits assumed, looked up): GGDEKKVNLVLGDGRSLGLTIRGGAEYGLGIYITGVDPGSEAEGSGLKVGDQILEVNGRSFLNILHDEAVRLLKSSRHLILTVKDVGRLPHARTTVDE

T6: TIAM2, Q8IVF5
T6 sequence (Q8IVF5 885-986, limits assumed, looked up): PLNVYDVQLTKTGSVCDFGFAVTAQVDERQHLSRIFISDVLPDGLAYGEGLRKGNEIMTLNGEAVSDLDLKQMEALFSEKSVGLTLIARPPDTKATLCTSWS

T7: RAPGEF6, Q8TEU7
T7 sequence (Q8TEU7 525-625, limits assumed, looked up): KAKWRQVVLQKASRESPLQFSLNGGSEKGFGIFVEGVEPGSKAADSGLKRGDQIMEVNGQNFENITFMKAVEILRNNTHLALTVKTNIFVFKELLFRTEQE

T8: DFNB31_1, Q9P202
T8 sequence (Q9P202 135-233, limits assumed, looked up): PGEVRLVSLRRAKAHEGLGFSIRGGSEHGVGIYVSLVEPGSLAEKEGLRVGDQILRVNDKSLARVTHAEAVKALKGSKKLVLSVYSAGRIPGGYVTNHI

T9: NHERF3_1, Q5T2W1
T9 sequence (Q5T2W1 4-100, limits assumed, looked up): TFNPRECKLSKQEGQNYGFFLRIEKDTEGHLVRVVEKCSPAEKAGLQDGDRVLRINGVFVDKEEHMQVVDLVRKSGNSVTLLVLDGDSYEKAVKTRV

T10: HTRA4, P83105
T10 sequence (P83105 378-476, limits assumed, looked up): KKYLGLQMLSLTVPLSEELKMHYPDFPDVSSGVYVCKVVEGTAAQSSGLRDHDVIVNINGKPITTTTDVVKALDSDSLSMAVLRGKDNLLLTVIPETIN

T11: DVL3, Q92997
T11 sequence (Q92997 244-331, limits assumed, looked up): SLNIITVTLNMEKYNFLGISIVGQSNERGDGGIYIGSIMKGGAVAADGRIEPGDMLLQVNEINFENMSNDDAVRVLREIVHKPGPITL

T12: SNTG1, Q9NSN8
T12 sequence (Q9NSN8 52-150, limits assumed, looked up): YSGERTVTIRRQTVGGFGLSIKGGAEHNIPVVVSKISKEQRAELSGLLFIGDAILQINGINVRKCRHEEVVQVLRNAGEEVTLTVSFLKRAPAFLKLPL

T13: SNTG2, Q9NY99
T13 sequence (Q9NY99 68-166, limits assumed, looked up): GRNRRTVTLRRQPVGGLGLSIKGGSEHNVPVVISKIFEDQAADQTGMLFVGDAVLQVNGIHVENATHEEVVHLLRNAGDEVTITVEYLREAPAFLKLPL

B1: IGSF5, Q9NSI5 (peptide)
chain: PEKVSNTTVV

target: T1, LIN7B, Q9HAP6; assay: holdup assay; set-up: key: below the threshold = too weak to quantify, mostly under pKd 3.1 to 4; settings: plain residues with an end cap or a label only (N-terminal biotin on a linker: ado-ado)

Row | pKd | Binder
1 | 3.69 | B1

target: LIMK2, P53671; assay: holdup assay; set-up: key: below the threshold = too weak to quantify, mostly under pKd 3.1 to 4; settings: plain residues with an end cap or a label only (N-terminal biotin on a linker: ado-ado)
Sequence (P53671 143-248): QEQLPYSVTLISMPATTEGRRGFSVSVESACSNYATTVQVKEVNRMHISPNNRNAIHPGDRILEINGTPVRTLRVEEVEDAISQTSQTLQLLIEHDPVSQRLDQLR

Row | pKd | Binder
2 | below the threshold | B1

target: GORASP2, Q9H8Y8; assay: holdup assay; set-up: key: below the threshold = too weak to quantify, mostly under pKd 3.1 to 4; settings: plain residues with an end cap or a label only (N-terminal biotin on a linker: ado-ado)

Row | pKd | Binder
3 | 4.33 | B1

target: SCRIB_1, Q14160; assay: holdup assay; set-up: key: below the threshold = too weak to quantify, mostly under pKd 3.1 to 4; settings: plain residues with an end cap or a label only (N-terminal biotin on a linker: ado-ado)
Sequence (Q14160 718-814): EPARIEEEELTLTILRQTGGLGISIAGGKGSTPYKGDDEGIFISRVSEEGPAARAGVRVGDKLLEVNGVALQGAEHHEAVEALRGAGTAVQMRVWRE

Row | pKd | Binder
4 | 3.56 | B1

target: PDLIM1, O00151; assay: holdup assay; set-up: key: below the threshold = too weak to quantify, mostly under pKd 3.1 to 4; settings: plain residues with an end cap or a label only (N-terminal biotin on a linker: ado-ado)
Sequence (O00151 1-87): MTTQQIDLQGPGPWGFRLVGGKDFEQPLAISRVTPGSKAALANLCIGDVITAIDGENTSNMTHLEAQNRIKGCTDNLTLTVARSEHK

Row | pKd | Binder
5 | below the threshold | B1

target: T2, MPDZ_10, O75970; assay: holdup assay; set-up: key: below the threshold = too weak to quantify, mostly under pKd 3.1 to 4; settings: plain residues with an end cap or a label only (N-terminal biotin on a linker: ado-ado)

Row | pKd | Binder
6 | below the threshold | B1

target: T3, DLG3_3, Q92796; assay: holdup assay; set-up: key: below the threshold = too weak to quantify, mostly under pKd 3.1 to 4; settings: plain residues with an end cap or a label only (N-terminal biotin on a linker: ado-ado)

Row | pKd | Binder
7 | below the threshold | B1

target: IL16_4, Q14005; assay: holdup assay; set-up: key: below the threshold = too weak to quantify, mostly under pKd 3.1 to 4; settings: plain residues with an end cap or a label only (N-terminal biotin on a linker: ado-ado)
Sequence (Q14005 1229-1329): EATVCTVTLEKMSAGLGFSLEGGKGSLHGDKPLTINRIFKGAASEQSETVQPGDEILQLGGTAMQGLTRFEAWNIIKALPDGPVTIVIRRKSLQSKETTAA

Row | pKd | Binder
8 | 3.51 | B1

target: T4, SNTA1, Q13424; assay: holdup assay; set-up: key: below the threshold = too weak to quantify, mostly under pKd 3.1 to 4; settings: plain residues with an end cap or a label only (N-terminal biotin on a linker: ado-ado)

Row | pKd | Binder
9 | 3.93 | B1

target: T5, DFNB31_2, Q9P202; assay: holdup assay; set-up: key: below the threshold = too weak to quantify, mostly under pKd 3.1 to 4; settings: plain residues with an end cap or a label only (N-terminal biotin on a linker: ado-ado)

Row | pKd | Binder
10 | below the threshold | B1

target: Inadl_8, Q8NI35; assay: holdup assay; set-up: key: below the threshold = too weak to quantify, mostly under pKd 3.1 to 4; settings: plain residues with an end cap or a label only (N-terminal biotin on a linker: ado-ado)
Sequence (Q8NI35 1425-1530): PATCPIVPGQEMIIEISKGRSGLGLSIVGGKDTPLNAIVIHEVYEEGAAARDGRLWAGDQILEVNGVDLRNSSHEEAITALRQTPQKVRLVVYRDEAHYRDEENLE

Row | pKd | Binder
11 | below the threshold | B1

target: T6, TIAM2, Q8IVF5; assay: holdup assay; set-up: key: below the threshold = too weak to quantify, mostly under pKd 3.1 to 4; settings: plain residues with an end cap or a label only (N-terminal biotin on a linker: ado-ado)

Row | pKd | Binder
12 | 4.04 | B1

target: T7, RAPGEF6, Q8TEU7; assay: holdup assay; set-up: key: below the threshold = too weak to quantify, mostly under pKd 3.1 to 4; settings: plain residues with an end cap or a label only (N-terminal biotin on a linker: ado-ado)

Row | pKd | Binder
13 | below the threshold | B1

target: T8, DFNB31_1, Q9P202; assay: holdup assay; set-up: key: below the threshold = too weak to quantify, mostly under pKd 3.1 to 4; settings: plain residues with an end cap or a label only (N-terminal biotin on a linker: ado-ado)

Row | pKd | Binder
14 | below the threshold | B1

target: T9, NHERF3_1, Q5T2W1; assay: holdup assay; set-up: key: below the threshold = too weak to quantify, mostly under pKd 3.1 to 4; settings: plain residues with an end cap or a label only (N-terminal biotin on a linker: ado-ado)

Row | pKd | Binder
15 | below the threshold | B1

target: IL16_1, Q14005; assay: holdup assay; set-up: key: below the threshold = too weak to quantify, mostly under pKd 3.1 to 4; settings: plain residues with an end cap or a label only (N-terminal biotin on a linker: ado-ado)
Sequence (Q14005 210-306): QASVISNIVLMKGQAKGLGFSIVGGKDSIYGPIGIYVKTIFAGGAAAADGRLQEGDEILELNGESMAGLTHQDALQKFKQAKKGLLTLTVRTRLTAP

Row | pKd | Binder
16 | below the threshold | B1

target: NOS1, P29475; assay: holdup assay; set-up: key: below the threshold = too weak to quantify, mostly under pKd 3.1 to 4; settings: plain residues with an end cap or a label only (N-terminal biotin on a linker: ado-ado)
Sequence (P29475 9-101): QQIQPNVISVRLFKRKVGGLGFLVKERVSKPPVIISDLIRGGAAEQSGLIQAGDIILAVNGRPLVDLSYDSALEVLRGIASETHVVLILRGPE

Row | pKd | Binder
17 | 3.64 | B1

target: T10, HTRA4, P83105; assay: holdup assay; set-up: key: below the threshold = too weak to quantify, mostly under pKd 3.1 to 4; settings: plain residues with an end cap or a label only (N-terminal biotin on a linker: ado-ado)

Row | pKd | Binder
18 | below the threshold | B1

target: T11, DVL3, Q92997; assay: holdup assay; set-up: key: below the threshold = too weak to quantify, mostly under pKd 3.1 to 4; settings: plain residues with an end cap or a label only (N-terminal biotin on a linker: ado-ado)

Row | pKd | Binder
19 | below the threshold | B1

target: FRMPD2_3, Q68DX3; assay: holdup assay; set-up: key: below the threshold = too weak to quantify, mostly under pKd 3.1 to 4; settings: plain residues with an end cap or a label only (N-terminal biotin on a linker: ado-ado)
Sequence (Q68DX3 1073-1166): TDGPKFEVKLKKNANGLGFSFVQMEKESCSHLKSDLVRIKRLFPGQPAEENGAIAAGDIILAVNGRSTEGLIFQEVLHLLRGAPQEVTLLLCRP

Row | pKd | Binder
20 | below the threshold | B1

target: PARD3_3, Q8TEW0; assay: holdup assay; set-up: key: below the threshold = too weak to quantify, mostly under pKd 3.1 to 4; settings: plain residues with an end cap or a label only (N-terminal biotin on a linker: ado-ado)
Sequence (Q8TEW0 582-685): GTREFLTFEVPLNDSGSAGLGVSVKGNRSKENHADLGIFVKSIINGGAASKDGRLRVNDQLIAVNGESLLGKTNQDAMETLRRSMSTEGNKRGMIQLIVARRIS

Row | pKd | Binder
21 | below the threshold | B1

target: T12, SNTG1, Q9NSN8; assay: holdup assay; set-up: key: below the threshold = too weak to quantify, mostly under pKd 3.1 to 4; settings: plain residues with an end cap or a label only (N-terminal biotin on a linker: ado-ado)

Row | pKd | Binder
22 | below the threshold | B1

target: DLG5_1, Q8TDM6; assay: holdup assay; set-up: key: below the threshold = too weak to quantify, mostly under pKd 3.1 to 4; settings: plain residues with an end cap or a label only (N-terminal biotin on a linker: ado-ado)
Sequence (Q8TDM6 617-713): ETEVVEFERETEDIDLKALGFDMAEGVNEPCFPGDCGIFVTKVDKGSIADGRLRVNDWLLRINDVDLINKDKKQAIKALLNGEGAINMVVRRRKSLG

Row | pKd | Binder
23 | below the threshold | B1

target: GRIP2_5, Q9C0E4; assay: holdup assay; set-up: key: below the threshold = too weak to quantify, mostly under pKd 3.1 to 4; settings: plain residues with an end cap or a label only (N-terminal biotin on a linker: ado-ado)
Sequence (Q9C0E4 544-642): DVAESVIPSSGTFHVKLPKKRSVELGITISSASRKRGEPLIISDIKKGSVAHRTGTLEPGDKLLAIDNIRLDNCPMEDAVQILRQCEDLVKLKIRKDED

Row | pKd | Binder
24 | below the threshold | B1

target: T13, SNTG2, Q9NY99; assay: holdup assay; set-up: key: below the threshold = too weak to quantify, mostly under pKd 3.1 to 4; settings: plain residues with an end cap or a label only (N-terminal biotin on a linker: ado-ado)

Row | pKd | Binder
25 | 3.76 | B1
